Test results reported in patent publication US20250340653A1.

Molecular target: Canine IL-31RA ECD-10His (canine)
Assay: ELISA, IL-31RA coated at 1 ug/mL, biotinylated IL-31 titrated, HRP-streptavidin

Canine IL-31RA ECD-10His (canine), sequence (chain, as listed by the source limits assumed): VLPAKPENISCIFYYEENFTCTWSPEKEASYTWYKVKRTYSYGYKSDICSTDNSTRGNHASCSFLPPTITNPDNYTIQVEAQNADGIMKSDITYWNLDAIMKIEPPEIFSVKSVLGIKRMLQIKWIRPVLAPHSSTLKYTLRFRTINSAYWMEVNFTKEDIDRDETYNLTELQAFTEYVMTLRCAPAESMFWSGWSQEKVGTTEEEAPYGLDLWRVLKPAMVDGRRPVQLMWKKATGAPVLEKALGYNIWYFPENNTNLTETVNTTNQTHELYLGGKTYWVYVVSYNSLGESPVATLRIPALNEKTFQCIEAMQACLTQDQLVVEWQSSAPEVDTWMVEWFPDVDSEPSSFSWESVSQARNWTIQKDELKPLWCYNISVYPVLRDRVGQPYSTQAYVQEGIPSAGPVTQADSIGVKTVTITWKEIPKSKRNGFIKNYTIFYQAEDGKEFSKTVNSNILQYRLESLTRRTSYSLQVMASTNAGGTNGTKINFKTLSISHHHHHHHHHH

EC50: 0.55 ng/mL
Substance: canine IL-31 (ligand)
